The supplement of paper PMC10126150
± gives the standard deviation of the averaged measurements.
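Note: ATP exposure 15 min at 22 °C before imaging.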

Each sequence was assayed on ATP (assay: switch fluorescence ratio, 500 uM ATP over buffer (Cy3 cluster intensity, sum of 5 cycles each) (fold (ratio)); higher = stronger signal-on switching upon ATP binding; sequences stand for … in TCGTCGGCAGCGTCAGATGTGTATAAGAGACAGTTTTTTTTTTTTTTTTTTTTTTTTT…TC). Details: aptamer strand: ATP DNA aptamer (quencher-CACCTGGGGGAGTATTGCGGAGGAAGG + anchor), 100 nM annealed; ATP concentration: 500 uM.
In short: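 Cy3-labelled switching-strand clusters on a modified Illumina MiSeq flow-cell were annealed to 100 nM quencher-labelled ATP aptamer, imaged in selection buffer, then imaged after 15 min with 500 uM ATP at 22 °C. Five buffer/ATP cycles ran, with NaOH stripping and re-annealing between them. The fluorescence ratio is summed target-cycle over summed buffer-cycle Cy3 intensity per cluster, averaged per switch-domain sequence. Clusters outside 100-1000 RFU were excluded.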
In the case of TGATTTTGTC, the switch fluorescence ratio is reported as 0.9932 ± 0.0028. ATAGGAGGTG gave a switch fluorescence ratio of 1.07 ± 0.019. Sequence TTCGAACTCG has a switch fluorescence ratio of 1.011 ± 0.0043. CGGGGTCAGT was tested, and the switch fluorescence ratio was 1.02 ± 0.014. For TTCTATTACC, the switch fluorescence ratio was 1.01 ± 0.032. For CGCTCATCTG, the switch fluorescence ratio was 0.968 ± 0.052. TTTAGGGGGC showed a switch fluorescence ratio of 1.03 ± 0.032. GTGTGCAGTG was tested, and the switch fluorescence ratio was 0.954 ± 0.01. For TTTTCGTGTT, the switch fluorescence ratio was 1 ± 0.032. Work on TCGAATGTGC yielded a switch fluorescence ratio of 0.989 ± 0.022. TAGGTAGGCA was tested, and the switch fluorescence ratio was 1 ± 0.028. CTGAGTATAG was tested, and the switch fluorescence ratio was 1.01 ± 0.023. TTGGGGAAGA gave a switch fluorescence ratio of 1.02 ± 0.029. In the case of AAGACGAGTT, the switch fluorescence ratio is reported as 0.9962 ± 0.0022. Work on ATAGAAAGGG yielded a switch fluorescence ratio of 1.02 ± 0.063. Sequence TAAAAAAAAT has a switch fluorescence ratio of 1.02 ± 0.033. GATGTTCGTG showed a switch fluorescence ratio of 0.994 ± 0.014. For CATTAGATCG, the switch fluorescence ratio was 0.997 ± 0.044. For TTAGATTTTT, the switch fluorescence ratio was 1.002 ± 0.0087. With CGGTATAGCA the switch fluorescence ratio was 0.971 ± 0.027. AAGTTTTATC was tested, and the switch fluorescence ratio was 0.989 ± 0.021. For CGTATGGTTA, the switch fluorescence ratio was 1.02 ± 0.038. GTTGGGGGGG was tested, and the switch fluorescence ratio was 1.01 ± 0.03. In the case of TATTATAAAT, the switch fluorescence ratio is reported as 0.98 ± 0.016. Work on GGGAGGTCAG yielded a switch fluorescence ratio of 0.992 ± 0.035. TTTGTGACAG was tested, and the switch fluorescence ratio was 1.02 ± 0.018. TTGGGTGCTA gave a switch fluorescence ratio of 1.09 ± 0.16. Sequence AACAAATTTT has a switch fluorescence ratio of 1.012 ± 0.0097. In the case of AAGGGCCCGT, the switch fluorescence ratio is reported as 1.02 ± 0.022. For GGAAATATAG, the switch fluorescence ratio was 0.989 ± 0.012. Sequence AAAGCACTAG has a switch fluorescence ratio of 1.11 ± 0.055. GGGGGAAAGC gave a switch fluorescence ratio of 0.984 ± 0.049. With GTATATGGTC the switch fluorescence ratio was 1.02 ± 0.03. In the case of CGGTGTGCGG, the switch fluorescence ratio is reported as 0.995 ± 0.037. With TGTGTGGGGA the switch fluorescence ratio was 1.01 ± 0.027. GGCTCATTAT was tested, and the switch fluorescence ratio was 0.9719 ± 0.0034. TGAGGGGATC was tested, and the switch fluorescence ratio was 1.02 ± 0.015. In the case of AAGTACTTTA, the switch fluorescence ratio is reported as 1.14 ± 0.013. CGATGCGGGG showed a switch fluorescence ratio of 1.011 ± 0.0095. CAGGACTGCA was tested, and the switch fluorescence ratio was 1.028 ± 0.0039. With CAGTGGACGG the switch fluorescence ratio was 0.971 ± 0.042. TTAGATTGGT gave a switch fluorescence ratio of 0.99 ± 0.033. CAATGGAGAA gave a switch fluorescence ratio of 1.01 ± 0.021. TTAGCGAGGC showed a switch fluorescence ratio of 2.13 ± 1.2. GAAAGCGGCT showed a switch fluorescence ratio of 1.032 ± 0.0089. TGAGTGGGGC showed a switch fluorescence ratio of 1.03 ± 0.025. CTTCTGGTCG was tested, and the switch fluorescence ratio was 1.01 ± 0.04. Work on AATAAAGAAT yielded a switch fluorescence ratio of 0.973 ± 0.019. TTCGAGAGTG was tested, and the switch fluorescence ratio was 0.945 ± 0.054. Work on GCGTCGGGTG yielded a switch fluorescence ratio of 1.019 ± 0.008. CCATGGGTTG gave a switch fluorescence ratio of 1.01 ± 0.016. With ACAGCTTTGA the switch fluorescence ratio was 0.985 ± 0.026. In the case of TTTGATCAAG, the switch fluorescence ratio is reported as 1.021 ± 0.008. Sequence TTACTGGAAC has a switch fluorescence ratio of 1.06 ± 0.021. With GTGTACTGGG the switch fluorescence ratio was 0.993 ± 0.017. Sequence GATGTATATG has a switch fluorescence ratio of 0.992 ± 0.018. Sequence GATAGCTTTT has a switch fluorescence ratio of 1.05 ± 0.082. With TCAGGGTTGT the switch fluorescence ratio was 1.02 ± 0.031. In the case of TTCAGGGGTA, the switch fluorescence ratio is reported as 1.02 ± 0.033. Work on TCGAGTTGCA yielded a switch fluorescence ratio of 1 ± 0.033. Work on TTCTACGGTC yielded a switch fluorescence ratio of 1.01 ± 0.03. Sequence CAATAAAATC has a switch fluorescence ratio of 0.9924 ± 0.0019. GGGTTAGCTG showed a switch fluorescence ratio of 1.01 ± 0.081. Work on GGGAAAGGGG yielded a switch fluorescence ratio of 1.01 ± 0.02. Sequence GCTCTGACGG has a switch fluorescence ratio of 1.054 ± 0.0086. AGGCGCCTGT was tested, and the switch fluorescence ratio was 1.02 ± 0.017. Work on CTTTTTTAAT yielded a switch fluorescence ratio of 0.982 ± 0.012. For GACGGGTCTC, the switch fluorescence ratio was 1.001 ± 0.0098. For CCAGTAAGTG, the switch fluorescence ratio was 1.09 ± 0.03. CTGTCTCAAG was tested, and the switch fluorescence ratio was 0.97 ± 0.059. Work on TTGTAATGAG yielded a switch fluorescence ratio of 1.04 ± 0.065. For GGGGGTGCGG, the switch fluorescence ratio was 0.977 ± 0.044. In the case of ATCGGGTAAG, the switch fluorescence ratio is reported as 1.01 ± 0.024. Sequence AGTGTTGGCC has a switch fluorescence ratio of 1.023 ± 0.0089. Work on TTATATCCTG yielded a switch fluorescence ratio of 0.974 ± 0.038. TGTGGAAGTT was tested, and the switch fluorescence ratio was 0.9686 ± 0.0021. ATGTGCTGGG was tested, and the switch fluorescence ratio was 0.981 ± 0.031. With TTTTTTCATG the switch fluorescence ratio was 0.988 ± 0.033. With TTGGGCCGTT the switch fluorescence ratio was 1.01 ± 0.035. With GTTGTTAAAT the switch fluorescence ratio was 1.011 ± 0.0047. GGGATGGGAG gave a switch fluorescence ratio of 1.02 ± 0.038. With GATGTCGTTT the switch fluorescence ratio was 1.02 ± 0.049. With ATTCCTCAGC the switch fluorescence ratio was 2.39 ± 0.49. Sequence CGGGGGTGCT has a switch fluorescence ratio of 0.966 ± 0.044. For AAGCTCGACG, the switch fluorescence ratio was 0.9695 ± 0.0026. With TTGGGCCCGC the switch fluorescence ratio was 1.007 ± 0.0012. With GACAAAGGAT the switch fluorescence ratio was 1.04 ± 0.025. In the case of GTTTCGGGCT, the switch fluorescence ratio is reported as 1.01 ± 0.012. In the case of CATTGTTGAT, the switch fluorescence ratio is reported as 0.989 ± 0.017. TGCTGCAGTT showed a switch fluorescence ratio of 0.982 ± 0.055. CCAAGGCTGG was tested, and the switch fluorescence ratio was 1.02 ± 0.043. AACGGGTTGG was tested, and the switch fluorescence ratio was 0.998 ± 0.047. With TAAGTTAGTT the switch fluorescence ratio was 0.979 ± 0.027. Sequence CTAACTGCAT has a switch fluorescence ratio of 1.18 ± 0.031. Work on TTATTGAATT yielded a switch fluorescence ratio of 0.998 ± 0.045. With ATCGGAATTG the switch fluorescence ratio was 1.01 ± 0.015. With GCATTGGATA the switch fluorescence ratio was 1 ± 0.014. For TTCGAGTATT, the switch fluorescence ratio was 0.99 ± 0.019. ATTACGGTGG showed a switch fluorescence ratio of 1 ± 0.045. CTCCCTTCGA was tested, and the switch fluorescence ratio was 1.17 ± 0.036.
